Assay results taken from publication PMC3701638.

These substances were tested against α-casein.

Km of α-casein phosphorylation by the kinase (in vitro kinase assay, Michaelis-Menten fit) [µM] | Substance
4.84 | GST-CK1δ (FP449), wild-type full length rat CK1δ (from UniProt Q06486 1-415) (enzyme)
5.31 | GST-CK1δ^(S328A, S370A) (FP1292) (from UniProt Q06486 1-415) (enzyme)
7.74 | GST-CK1δ^(S328A, S370A, T397A) (FP1293) (from UniProt Q06486 1-415) (enzyme)
6.63 | GST-CK1δ^(S328A, T397A) (FP1268) (from UniProt Q06486 1-415) (enzyme)
5.49 | GST-CK1δ^S328A (FP1267) (from UniProt Q06486 1-415) (enzyme)
7.38 | GST-CK1δ^S370A (FP1030) (from UniProt Q06486 1-415) (enzyme)
7.2 | GST-CK1δ^T397A (FP1184) (from UniProt Q06486 1-415) (enzyme)
